Assay results: the nanobody polyreactivity screen of Harvey et al. (2022)

Experiment: yeast display, Sf9 membrane polyspecificity reagent, FACS + sequencing; frameworks hold sequencing errors
Summary of the method: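 In a synthetic yeast display library (Saccharomyces cerevisiae BJ5465), nanobody expression was induced with galactose for 36–48 hours. FACS gates were set low and high (top ~1%) using anti-HA fluorescence for expression and streptavidin fluorescence for binding of the Sf9 membrane reagent. Each polyreactivity label is drawn from the gate of origin.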

Row | Sequence | polyreactivity (PSR sort gate)
1 | QVQLVESGGGLVQEGGSLRLSCAASGIIFLWYTMGWYRQAPGKERELVATISWAGGSTYADSVKGRFTISRDNAKNTVYLPMNSLKPEDTAVYYCNTEIYVDIISDYGYWGQGTQVTVSS | low polyreactivity
2 | QVQLVESGGGLVQAGGSLRLSCAASGIIFASYAMGWYRQAPGKERELVAAITWDGDSTYYADSVKGRFSISRDNAKNTVYLQRNSLKPEDTAVYYCAADGVYVGFYGYDYDYWGQGTQVTVSS | low polyreactivity
3 | QVQLVESGGGLVQAGGSLRLSCAASGRTFPRYVMGWYRQAPGKERELVAAITSSGGSTYYADSVKGRFTISRDKAMNTVYLQMNSLKPEDTAVYYCAAFARPYSGQYAYRLDYWGQGTQVTVSS | high polyreactivity
4 | QVQLVESGGGLVQAGGSLRLSCAASGRIFPAYAMGWYRQAPGKERELVAAITGGGSTNYADSVKGRFTISRDNAKNTVYLQMNSLKPEDTAVYYCNAVTGTYGWAPQAREQEDYWGQGTQVTVSS | low polyreactivity
5 | QVQLVESGGGLVQAAGSLRLSCAASGLTFGGYPMGWYRQAPGKERELVAAISRSCGSTYYADSVKGRFTISRDNAKNTVYLQMNSLKPEDTAVSYCNAGRDTKYDYWGQGTQVTVSS | low polyreactivity
6 | QVQLVESGGGLVQAGGSLRLSCAASGSIFFYYAMGWYRQAPGKEREFVAGITYSGGITYYADSVKGRFTISRDNGKNTVYLQMNSLKPEDTAVYYCDYGGGVYQYGYWGQGPQVTVSS | low polyreactivity
7 | QVQLVESGGGLVQAGGSLRLSCAASGNIFRYYVMGLYRQAAGKEREFVAAITSSGGSTYYADSVKGRFTISRDNAKKTVYLQMNSLKPEDTAVYYCAKDYWDPGWAEYDYWGQGTQVTVSS | low polyreactivity
8 | QVQLVESGGGLVQAGGSLRLSCAASGRIFTGYAMGWYRQAPGKERELVASITWRGGSTSYADSVKGRFTISRDNAKNTVYLQMNSLKPEDTAVYYCAAQKWYYPYYWGQGTQVTVSS | high polyreactivity
9 | QVQLVESGGGLVQAGGSLRLSCAAYGSTFDRNVMGWYRQAPGKERELVAAISRVSSTNYADSVKGRFTISRDNAKNTVYLQMNSLKPEDTAVYYCAADRPGSIMNYWGQGTQVTVSS | low polyreactivity
10 | QVQLVESGGGLVQAGGSLRLSCAASGRTFDSYAMGWYRQAPGKERELVAAIYADSVKGRFTISRDNAKNTVYLQMNSLKPEDTAVYYCAAETYSGQTYLGEYDYWGQGTQVTVSS | low polyreactivity
11 | QVQLVESGGGLVQAGGSLRLSCAASGRILPFYAMGWYRQAPGKERELVATISWTSDSTYYADSVKGRFTISRDNAKNTVYLQMNSLKPEDTAVYYCAREYTYTYASTVIYDHWGQGTQVTVSS | low polyreactivity
12 | QVQLVESGGGLVQAGGSLRLSCAASGRIFSRYAMGWYRQAPGKERELVAAISWSGGSTYYADSVKGRFTISRDNAKNNVYLQMNSLKPEDTAVYYCAARRSYSYGSWGQGTQVTVSS | high polyreactivity
13 | QGQRVESGGGLVQAGGSLRLSCAPSGRTFKYYAMGWYRQAPGKERELFAAISYTGGSTYFADSVMGRFTISRDNAKNTVYLQMNSLKPEDTAVYYCARSYYTNGNALKRDYWGQGTQVTVSS | high polyreactivity
14 | QVQLVESGGGLVQAGGSLRLSCAASGRTIRWNAMGWYRQAPGKERELVAAITSRGGSTYYADSVKGRFTISRDNAKNTVYLQMISLKPEDTAVSYCAKQPKPPPVTGYDYSGQGTQVTVSS | high polyreactivity
15 | QVQHVESGGGLVQAGGSLRLSCPASGSIIYYNTMGWYRQAPGKERELVAGISWGGGRTYYADSVKGRFTISRDNAKNTVYLQMNSLKPEDTAVYYCNAVSKYDYGYWGQGTQVTVSS | high polyreactivity
16 | QVQLVESGGGLVQAGGSLRLICAASGRTYDKYVMGWYRQAPGKERELVSAISFRGVRTYYADSVKGRFTISRDNAKNTFYLQKNSLKPEDTGVYYCAARFTFSAIIGPYGYWGQGTQVTVSS | high polyreactivity
17 | QVQLVESGGGLVQAGGSLRLSCAASGSIFRYNAMGWYRQAPGKERELVAAITSGDSTYYADSVKGRFTISRDNAKNTVYLQMNSLKPEDTAVYYCAADLRYIYWSYYYWGQGTQVTVSS | low polyreactivity
18 | QVQRVDSGGGLVQAGGSLRLSCDPSGRTHDVNAMGWYRQAPWKERQLVAAISYSGGITYYADSVKGRFTISRDNAKNTVYLQMNSLKPEDTAVYYCAVVGGYPSYTVDYWGQGSQVTVSS | low polyreactivity
19 | QVQLVESGGGLVQAGGSLSLSCAASGRIFRYNAMGWYRQAPGKERELVAGINGRSGSTTYADSVKGRFTISRDNAKNTVYLQMNSLKPEDTAVYYCAIVYGGYHYAFRSSRGMGYWGQGTQVTVSS | high polyreactivity
20 | QVQLVESGGGLVQAGGSLRLSCAASGSIFPWNTMGWYRQAPGKERELVARISTSGASTYYADSVKGRFTISRDNAKNTVYLQMNSLKPEDTAVYYCAARKRPFYKYDYWGQGTQVTVSS | high polyreactivity
21 | QVQLVESGGGLVQAGGSLRLSCAASGSIFALYAMGWSRQEPGKEREFVAAISYRGGRTYYADSVKGRFTISRDNAKNTVYLQMNSLKPEDTAVYYCDTDFPGKFDYWGQGTQVTVSS | low polyreactivity
22 | QVQLVESGGGLDQAGGSLRLSCAASGYTFVGNAMGWYRQAPGKERELVAAISRSGGRTYYADSVKGRFTISRDNAKYTVYLQMNSLKPEDTAVYYCAKQPGSGPYYWGQGTQVTVSS | high polyreactivity

Row | Sequence | polyreactivity (PSR sort gate)
23 | QVQLVESGGGLVQAGGSLRLSCAASGRIFRYYVMGWYRQAPGKERELVATITSGGSTNYADSVKGRFTISRDNAKNTVYLQMYSLKPEDTAVYYCARGTSTCTYYWYGYWGQGTQVTVSS | low polyreactivity
24 | QVQLVESGGGLVQAGGSLRLSCAASGRIIWANTMGCYRQAPGKEREFVAAISWSTDSTYYADSVKGRFTISRDNAKNTVYFQMNSLKPEDTAVYYCNARAGYPWGVFYVTYVYWGQGTQVTVSS | low polyreactivity
25 | QVQLQDSGGGLVQAGGSLRLSCAASGYIFGSGSMGWFRQAPGKERELVATINNGSSTYYADSVKGRFTISRDNAINTVYLQMNSLKPEDTAVYYCAAVRIRPLRYYYWGQGTQVTVSS | high polyreactivity
26 | QVQLVESGGGLVQAGGSLRLSCAASGRIFRTYALGWYRQAPGKERELVAAINSGGTTYYADSVKGRFTISRDNAKNTVYLQLNSLKPEDTAVYYCNAEYYYAFLRLWYDYWGQGTQVTVSS | high polyreactivity
27 | QVQLVESGGGLVQAGGSLRLSCAASGFTFRVNAMGWYRQAPGKERELVAASSSGGRTYYADSVKGRFTISRDNAKNTVYLQMNSLKPEDTAVYYCNAGRVRHGNDYWGQGTQVTVSS | high polyreactivity
28 | QVQLVESGGGLVQAGGSLRLSCAASGSIFFEYAMGWYRQATGKERELVAAISRRGGSTYYADSVKGRFTISRDNAKNTVYVQMNSLKPEDTAVYYCNKVNRASRGDYDYWGQGTQVTVSS | high polyreactivity
29 | QVQHVESGGGLVQAGGSLRLSCDASGLTISWYAMGWYRQAPGKEREMVAAISKRGGSTYYADSVKGRFTISRDNAKNTVYLQMNSLKPEDTAVYYCNARSPYTGWTLDYWGQGTQVTVSS | high polyreactivity
30 | QVQLVESGGGLVQAGGSLRLSCAASGSTFYTYAMGWYRQAPGKECELVAAISNRGGSTRYADSVKGRFTISRDNAKNTVYLQMNSLKPEDTAVYYCAAQRIRRGWYGYWGPGTQVTVSS | high polyreactivity
31 | QVQLVESGGGLVQAGGSLRLSCAASGSTFGWYAMGWYRKAPGKERELVAAISTTGGRTYYADSVKGRFTISRDNAKNTVYLQMNSLKPEDTAVYYCNARGRRYVYSYGYDYWGQGTQVTVSS | high polyreactivity
32 | QVQLVESGGGLVQAGGSLRLSCAASGSTFFGNAMGWYRQAPGKERELVAAITTGSGRTYYADSVKGRFTISRDNAKNTVYLQMNSLKPEDTAVYYCAARFSERVYVVPFGYWGQGTQVTVSS | high polyreactivity
33 | QVQLVESGGGLVQAGGSLRLSCAASGSTIYSYAMGWYRQAPGKERELVAAISWSGARTYYADSVKGRFTISRDIAKNTVYLQMNSLKPEDTAVYYCAASGYYSSHMDYWGQGTQVTVSS | high polyreactivity
34 | QVQLGESGGGFVQAGGSLRLSCAASGFIFAPYAMGWYRHAPGKERELDAFISWSGGRTYYADSVKGRFTLSRDKAKNTVYLLMNSLNPEDTAVYYCNARGSRRGGPGYEYWGQGTQVTVSS | high polyreactivity
35 | QLQRVESGGGLVQAGGSLRLSCAASGSTFYPNAMGWYRQAPAKEREFVAAISTSAGRTYYADSVKGRFTISRDNAKNTVYLQMNSLKPEDTAVYYCNARYWVYYVYEYDSWGQGTQVTVSS | low polyreactivity
36 | QVQLVESGGGLVQAGGSLRLTCAASGFTFYLNAMGWYRQAPGKERELVAAITDDGDSTYYADSVKGRFTISRDNAKNTVYLQMNSLKPEDTAVYYCNTVYGPDLDGTEYDYWGQGTQVTVSS | low polyreactivity
37 | QGQLVESGGGLVQAGGSIRLSCAAYGSTFNVNAMGLYRQAPGKERELVAAISRSCVSTYYADSVKWRFTISRDNAKNTVYLQMNSLKPEDTAVYYCNAYPGNWRGYRMDYWGQGNQVTVSS | high polyreactivity
38 | QVQLVESGGGLVQAGGSLRLSCAASGRTFRHNAMGWYRQAPGKERELVAAISSSGTNTHYADSVKGRFTISRDNAKNTVYLQMNSLKPEDTAVYYCATVVRSAAYAFDYWGQGTQVTVSS | high polyreactivity
39 | QVQLVESGGGLVQAGGSLRLSCAASGRTFNFNAMGWYRQAPGKERELVATITSRGGSTYADSVKGRFTISRDNAKNTVYLQMNSLKPEDTAVYYCNARTPYIRDYQYWRKYDYWGQGTQVTVSS | high polyreactivity
40 | QFQLVESCGGLVQAGGTLRLSCAASGFIFDIYERGWYRQAPGKERELVAAITWNSGSTHYADSVKGRFTISRDNAKKTVYLQMNSLNPDDTAVYYCAAVEVTYAYYPYDYCGQGTQVTVSS | low polyreactivity
41 | QVQLVEAGGGLVQAGGSLRLSCAASGSIFGSYAMGWYRQAPGKERELVAAISGSGGRTYYADSVKGRFTISRDNAKISVYLQMNSLKPDDTAVYYCAAAYPRVTYNYGYYWGQGTQVTVSS | high polyreactivity
42 | QVQLVESGGGLVQAGGSLRLSCAASGITIPVYMGWYRQAPGKERELVASISTIGGTTYYADSVKGRFTISRDNAKNTVYLQMNSLKPEDTAVYYCAADHPWSWYDYWGQGTQVTVSS | low polyreactivity
43 | QVQLVESGGGLVQAGGSLRLTCAASGRIFSYYDMGWYRKAPGKERELVARISYSGDSTYYADSVKGRFTISRDNAKNTVYLQMNSLKPEDTAVYYCAAEVDSGYSEYYWGQGTQVTVSS | low polyreactivity
